A value given as a limit tells only on which side of the number the result lay.

The text below walks through data of patent publication CN116178551A (BEIJING DONGFANG BIOTECH CO LTD, dated 2023).

In assay [1] the target is T1, huFc-NKG2C/CD94 (UniProt P26717 94-231; Q13241 32-179, limits assumed).
T1 construct: The construct is named only, and its architecture is not described; not shown: human Fc (huFc)
Put plainly: ELISA, serial dilution of MA-1 on huFc-NKG2C/CD94, anti-mouse Ig-HRP. A general note: In an ELISA, binding on a coated surface is turned into a signal by an enzyme label.

The target in assay [2] is T2, huFc-NKG2E/CD94 (UniProt Q07444 94-240; Q13241 32-179, limits assumed).
T2 construct: The construct is named only, and its architecture is not described; not shown: human Fc (huFc)
T2 sequence (Q07444 94-240 limits assumed, chain 1 of 2): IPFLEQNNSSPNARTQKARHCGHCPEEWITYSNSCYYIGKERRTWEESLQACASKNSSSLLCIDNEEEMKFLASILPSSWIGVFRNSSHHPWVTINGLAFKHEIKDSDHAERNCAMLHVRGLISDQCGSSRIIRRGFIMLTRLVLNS
T2 sequence (Q13241 32-179 limits assumed, chain 2 of 2): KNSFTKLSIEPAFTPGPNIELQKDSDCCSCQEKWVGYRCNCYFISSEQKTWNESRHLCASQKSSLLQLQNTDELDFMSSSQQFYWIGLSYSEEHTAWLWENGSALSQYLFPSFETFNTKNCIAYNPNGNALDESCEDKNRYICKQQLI
Put plainly: ELISA, serial dilution of MA-1 on huFc-NKG2E/CD94, anti-mouse Ig-HRP.

The target in assay [3] is T3, huFc-NKG2A/CD94 (UniProt P26715 94-233; Q13241 32-179, limits assumed).
T3 construct: The construct is named only, and its architecture is not described; The Fc is placed N-terminal following the printed name; not shown: human Fc (huFc)
T3 sequence (P26715 94-233 limits assumed, chain 1 of 2): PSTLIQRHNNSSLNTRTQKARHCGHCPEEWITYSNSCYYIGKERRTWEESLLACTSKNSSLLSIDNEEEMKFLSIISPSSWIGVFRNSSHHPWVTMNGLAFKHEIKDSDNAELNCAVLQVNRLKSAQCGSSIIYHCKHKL
T3 sequence (Q13241 32-179 limits assumed, chain 2 of 2): as the sequence (Q13241 32-179 limits assumed, chain 2 of 2) above
Put plainly: phage supernatant ELISA, huFc-NKG2A/CD94 against huFc-NKG2C/CD94 and huFc-NKG2E/CD94 (selection criterion met by MA-1).

T1 sequence (P26717 94-231 limits assumed, chain 1 of 2): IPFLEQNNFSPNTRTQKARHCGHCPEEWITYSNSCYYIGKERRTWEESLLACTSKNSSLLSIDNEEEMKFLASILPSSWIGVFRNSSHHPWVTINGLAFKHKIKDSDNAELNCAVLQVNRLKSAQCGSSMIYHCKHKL
T1 sequence (Q13241 32-179 limits assumed, chain 2 of 2): as the sequence (Q13241 32-179 limits assumed, chain 2 of 2) above

B1: MA-1鼠源抗体 (murine full antibody MA-1, mouse IgG2a / mouse Ck) (antibody, V domains shown)
VH: EVKLEESGGGLVKPGGSLKLSCAASGFAFSDYDMSWVRQTPEKRLEWVATISSGGSYTYYPDSVKGRFTISRDNARNTLYLQMSSLRSEDTALYYCTSPRQVGLRKAFDYWGQGTTLTVSS
VL: DIVVTQSPALMSASPGEKVTMTCSASSSVSYMYWYQQKPRSSPKSWIYLTSNLASGVPARFSGSGSGTSYSLTISSMEAEDAATYYCQQWSSNPFTFGSGTKLEIKR
notes: also called 抗NKG2A单克隆抗体MA-1; 鼠源全抗分子
Consider B1, for which the binding result in assay [1] and in assay [2] was “no binding” throughout.

B2: 噬菌体单克隆抗体MA-1 (phage-displayed single-chain antibody MA-1) (scFv)
chain: EVKLEESGGGLVKPGGSLKLSCAASGFAFSDYDMSWVRQTPEKRLEWVATISSGGSYTYYPDSVKGRFTISRDNARNTLYLQMSSLRSEDTALYYCTSPRQVGLRKAFDYWGQGTTLTVSSDIVVTQSPALMSASPGEKVTMTCSASSSVSYMYWYQQKPRSSPKSWIYLTSNLASGVPARFSGSGSGTSYSLTISSMEAEDAATYYCQQWSSNPFTFGSGTKLEIKRAD
As for B2, in assay [3], the “OD450nm读值 with NKG2A relative to NKG2C/E” value is greater than 3 fold.
